Test results as given in article PMC7911445.
Read-outs that look alike come from different tables or passages of the source.

Question: For “β-catenin: 1-mM LiCl (GSK3β inhibitor) added to TMA/BL-treated cultures”, which localisation_or_trafficking (phosphorylation at S33) is on record?
Answer: increases

Question: And the localisation_or_trafficking (phosphorylation at S37)?
Answer: increases
